From publication PMC2173515 (The Journal of Cell Biology, 2003)

Assays:
Assay in all cases: co-IP
[1] = target: T1, Vps27 (full-length, wild type) (yeast, UniProt P40343 1-622)
T1 sequence: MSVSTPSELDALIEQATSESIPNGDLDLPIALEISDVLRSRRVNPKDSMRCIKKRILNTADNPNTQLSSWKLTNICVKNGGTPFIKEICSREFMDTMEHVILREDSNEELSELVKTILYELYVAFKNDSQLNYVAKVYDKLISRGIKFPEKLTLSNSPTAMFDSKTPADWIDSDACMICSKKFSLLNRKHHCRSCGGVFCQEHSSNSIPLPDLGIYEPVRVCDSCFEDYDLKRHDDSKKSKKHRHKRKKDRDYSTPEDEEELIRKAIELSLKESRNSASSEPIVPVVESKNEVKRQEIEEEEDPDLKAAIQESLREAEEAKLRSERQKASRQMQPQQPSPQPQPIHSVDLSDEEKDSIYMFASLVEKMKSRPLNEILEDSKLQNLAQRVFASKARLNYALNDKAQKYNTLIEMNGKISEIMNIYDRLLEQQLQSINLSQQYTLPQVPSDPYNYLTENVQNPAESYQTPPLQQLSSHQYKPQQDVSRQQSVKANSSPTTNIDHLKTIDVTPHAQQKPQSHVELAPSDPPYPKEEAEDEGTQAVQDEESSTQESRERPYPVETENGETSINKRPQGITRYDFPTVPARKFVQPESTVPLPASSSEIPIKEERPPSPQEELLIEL

[2] = target: T2, Vps27 truncated at residue 617 (yeast, UniProt P40343 1-617)
T2 sequence: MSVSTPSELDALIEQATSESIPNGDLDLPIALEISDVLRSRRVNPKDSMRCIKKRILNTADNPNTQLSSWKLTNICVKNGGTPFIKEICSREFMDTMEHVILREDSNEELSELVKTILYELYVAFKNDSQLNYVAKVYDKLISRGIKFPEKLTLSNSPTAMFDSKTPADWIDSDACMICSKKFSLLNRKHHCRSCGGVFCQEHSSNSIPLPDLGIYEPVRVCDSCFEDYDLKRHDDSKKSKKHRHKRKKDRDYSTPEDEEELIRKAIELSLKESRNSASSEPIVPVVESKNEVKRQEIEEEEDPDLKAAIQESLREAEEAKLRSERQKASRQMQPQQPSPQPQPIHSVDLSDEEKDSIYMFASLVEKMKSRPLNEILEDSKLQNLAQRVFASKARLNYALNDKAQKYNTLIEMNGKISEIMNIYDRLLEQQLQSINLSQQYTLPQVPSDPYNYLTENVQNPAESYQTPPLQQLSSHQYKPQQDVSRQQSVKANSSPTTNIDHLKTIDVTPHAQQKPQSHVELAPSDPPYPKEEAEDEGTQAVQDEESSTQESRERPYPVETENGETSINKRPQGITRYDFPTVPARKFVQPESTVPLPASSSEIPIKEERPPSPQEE

[3] = target: T3, Vps27 truncated at residue 579 (yeast, UniProt P40343 1-579)
T3 sequence: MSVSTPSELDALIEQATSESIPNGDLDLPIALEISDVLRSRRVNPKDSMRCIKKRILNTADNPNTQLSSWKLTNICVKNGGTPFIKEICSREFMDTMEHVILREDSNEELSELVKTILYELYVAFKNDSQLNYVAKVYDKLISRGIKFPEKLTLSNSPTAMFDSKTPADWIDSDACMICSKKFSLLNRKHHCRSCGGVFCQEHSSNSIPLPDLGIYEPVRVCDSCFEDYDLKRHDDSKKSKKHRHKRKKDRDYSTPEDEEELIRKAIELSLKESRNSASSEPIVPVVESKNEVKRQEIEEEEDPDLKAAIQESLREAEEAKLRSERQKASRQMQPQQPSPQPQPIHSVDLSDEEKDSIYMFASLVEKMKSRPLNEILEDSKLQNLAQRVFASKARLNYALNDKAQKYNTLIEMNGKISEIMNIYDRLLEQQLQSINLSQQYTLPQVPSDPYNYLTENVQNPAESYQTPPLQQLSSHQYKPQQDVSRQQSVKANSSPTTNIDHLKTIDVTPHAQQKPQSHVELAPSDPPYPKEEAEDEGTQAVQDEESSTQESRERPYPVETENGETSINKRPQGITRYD

[4] = target: T4, Vps27 truncated at residue 524 (yeast, UniProt P40343 1-524)
T4 sequence: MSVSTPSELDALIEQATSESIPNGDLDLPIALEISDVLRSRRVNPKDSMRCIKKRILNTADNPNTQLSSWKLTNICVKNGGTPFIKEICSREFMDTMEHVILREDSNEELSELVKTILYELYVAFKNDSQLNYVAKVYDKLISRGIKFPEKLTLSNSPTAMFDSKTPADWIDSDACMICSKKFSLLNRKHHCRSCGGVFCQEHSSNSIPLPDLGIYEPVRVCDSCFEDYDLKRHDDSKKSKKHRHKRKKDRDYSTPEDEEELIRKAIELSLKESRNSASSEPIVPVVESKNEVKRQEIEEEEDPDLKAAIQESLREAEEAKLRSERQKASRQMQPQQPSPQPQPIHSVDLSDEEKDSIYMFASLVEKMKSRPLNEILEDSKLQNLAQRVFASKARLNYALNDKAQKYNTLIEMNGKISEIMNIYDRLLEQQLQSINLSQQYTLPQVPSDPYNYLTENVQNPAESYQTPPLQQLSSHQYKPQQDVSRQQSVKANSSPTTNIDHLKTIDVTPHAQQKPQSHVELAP

[5] = target: T5, Vps27 truncated at residue 485 (yeast, UniProt P40343 1-485)
T5 sequence: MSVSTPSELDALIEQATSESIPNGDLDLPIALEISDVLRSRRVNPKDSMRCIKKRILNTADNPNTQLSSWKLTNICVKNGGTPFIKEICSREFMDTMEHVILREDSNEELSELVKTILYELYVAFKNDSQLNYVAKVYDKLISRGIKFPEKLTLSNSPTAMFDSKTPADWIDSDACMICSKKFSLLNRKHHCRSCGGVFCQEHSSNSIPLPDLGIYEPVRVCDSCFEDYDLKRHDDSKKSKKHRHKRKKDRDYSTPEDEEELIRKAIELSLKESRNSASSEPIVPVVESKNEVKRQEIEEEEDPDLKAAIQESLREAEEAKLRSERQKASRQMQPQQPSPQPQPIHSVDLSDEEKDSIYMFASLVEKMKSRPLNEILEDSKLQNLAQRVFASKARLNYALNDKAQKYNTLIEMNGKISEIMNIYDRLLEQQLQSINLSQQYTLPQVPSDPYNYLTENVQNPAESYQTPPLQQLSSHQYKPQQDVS

Measured: percent of Vps23 co-immunoprecipitated

B1: Vps23-HA (natural protein)
chain: MSANGKISVPEAVVNWLFKVIQPIYNDGRTTFHDSLALLDNFHSLRPRTRVFTHSDGTPQLLLSIYGTISTGEDGSSPHSIPVIMWVPSMYPVKPPFISINLENFDMNTISSSLPIQEYIDSNGWIALPILHCWDPAAMNLIMVVQELMSLLHEPPQDQAPSLPPKPNTQLQQEQNTPPLPPKPKSPHLKPPLPPPPPPQPASNALDLMDMDNTDISPTNHHEMLQNLQTVVNELYREDVDYVADKILTRQTVMQESIARFHEIIAIDKNHLRAVEQAIEQTMHSLNAQIDVLTANRAKVQQFSSTSHVDDEDVNSIAVAKTDGLNQLYNLVAQDYALTDTIECLSRMLHRGTIPLDTFVKQGRELARQQFLVRWHIQRITSPLS
~10%: all assays above
